The values that follow come from patent US20190161544A1 (SUNSHINE GUOJIAN PHARMACEUTICAL SHANGHAI, published 2019).

The term Kd denotes the free concentration of one partner at which half of the binding sites on the other are occupied at equilibrium, for simple one-to-one binding. A high value points to a looser complex. What is called koff is the rate constant with which the complex falls apart. The term kon denotes the rate constant with which the complex forms. High values mean fast association, low ones slow association.

Assay [1] deals with T1, hIL-17A (analyte of the Biacore assay) (human, UniProt Q16552 24-155).
T1 construct: The Biacore method says only 'hIL-17A'; also called human IL-17A
T1 sequence (Q16552 24-155 limits assumed): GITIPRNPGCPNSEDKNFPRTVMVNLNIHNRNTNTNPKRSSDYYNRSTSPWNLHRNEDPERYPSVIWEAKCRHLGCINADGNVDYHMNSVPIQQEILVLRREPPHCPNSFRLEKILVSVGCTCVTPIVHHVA
Kind of assay: SPR, Biacore (as in Example 6): antibody captured, hIL-17A as analyte. The protocol:
(§1) The specific experimental method was as follows: Amine Coupling Kit (GE healthcare) was used to activate CM5 sensor chips (GE healthcare) and recombinant Protein A/G (Thermo Pierce) was immobilized on the chip with an amount of 2000 RU. FC3 (Flow cell 3) was a reference channel, and FC4 (Flow cell 4) was a sample channel. […] The cycling conditions were as follows: the analyte was injected at 50 μl/min for 4 min in all channels of the FCs, the dissociation time was 20 min, and 6M guanidine hydrochloride (National Pharmaceutical Group Chemical Reagent Co., Ltd.) was injected at a rate of 10 μl/min for 30 s to surface regeneration. Then, difference between the signals of the captured antibodies and antibody-free controls were adopted to calculate binding kinetics and affinities using Biacore T200 Evaluation Software Ver 1.0.
Background: SPR reads the build-up and loss of mass on a sensor chip optically.

Assay [2] has as its target T2, recombinant human IL-17A (purchased from R&D Systems) (human, UniProt Q16552 24-155). As to the kind of experiment: cell-based or functional assay.
For assay [3], the target named is T2, recombinant human IL-17A (purchased …). As to the kind of experiment: cell-based or functional assay. This is another data set of the same source.
For assay [4], the target named is T1, hIL-17A (analyte of the Biacore assay). Kind of assay: SPR, Biacore T200: antibody captured on Protein A/G, hIL-17A as analyte. The method, then:
as §1

T2 sequence (Q16552 24-155 limits assumed): as above

B1: humanized anti-human IL-17A monoclonal antibody 120-Hu (antibody, human IgG1, kappa, V domains shown)
VH: EVQLVESGGGLVQPGGSLRLSCAASGFTFSSFDMSWGRQAPGKRLEWVAFMSSGGSTYYPDSVKGRFTISRDNSKNTLYLQMNSLRAEDTAVYYCARGERYGSYWGQGTLVTVSS
VL: DIQMTQSPSSLSASVGDRVTITCKASDHINNWLAWYQQKPGKAPKLLISGATSLETGVPSRFSGSGSGTDYTLTISSLQPEDFATYYCQQYWSTPFTFGSGTKLEIKR
notes: Human IgG1; also called 120-Humanization; humanized 120 antibody
In assay [1], B1 had a Kd of less than 1 pM, a koff of less than 1e-05 s⁻¹ and a kon of 445000 M⁻¹ s⁻¹. Moreover, in assay [2], the “IC50(pM), inhibition of IL-17A-induced IL-6 secretion from Hela cells, Experiment 1” value came to 14.7 pM; the “IC50(pM), inhibition of IL-17A-induced IL-6 secretion from Hela cells, Experiment 2” value stood at 22 pM; the “IC50(pM), inhibition of IL-17A-induced IL-6 secretion from Hela cells, Experiment 3” value is 44.6 pM.

B2: Ixekizumab (antibody, V domains shown)
VH: QVQLVQSGAEVKKPGSSVKVSCKASGYSFTDYHIHWVRQAPGQGLEWMGVINPMYGTTDYNQRFKGRVTITADESTSTAYMELSSLRSEDTAVYYCARYDYFTGTGVYWGQGTLVTVSS
VL: DIVMTQTPLSLSVTPGQPASISCRSSRSLVHSRGNTYLHWYLQKPGQSPQLLIYKVSNRFIGVPDRFSGSGSGTDFTLKISRVEAEDVGVYYCSQSTHLPFTFGQGTKLEIKR
B2: the “IC50, inhibition of IL-17A-induced IL-6 secretion from Hela cells” value in assay [3] stood at 60.6 pM. In assay [1], this molecule gave a dissociation constant Kd of 41.1 pM, a koff of 9.45e-05 s⁻¹ and a kon of 2.3e+06 M⁻¹ s⁻¹. In assay [4], this molecule gave a Kd of 63.7 pM, a koff of 3.28e-05 s⁻¹ and a kon of 515000 M⁻¹ s⁻¹. Further, in assay [2], the “IC50(pM), inhibition of IL-17A-induced IL-6 secretion from Hela cells, Experiment 1” value stood at 21.9 pM; the “IC50(pM), inhibition of IL-17A-induced IL-6 secretion from Hela cells, Experiment 2” value was found to be 27.4 pM; the “IC50(pM), inhibition of IL-17A-induced IL-6 secretion from Hela cells, Experiment 3” value amounted to 50.7 pM.

B3: murine anti-human IL-17A monoclonal antibody No.120 (antibody, V domains shown)
VH: EVKLVESGGGLVRPGGTLKLSCAASGFTFSSFDMSWGRQTPEKRLEWVAFMSSGGSTYYPDSVKGRFTISRDNVRNILYLQMISLRSEDTAMYYCARGERYGSYWGQGTLVTVSA
VL: DIQMTQSSSYLSVSLGGRVTITCKASDHINNWLAWYQQKPGNAPRLLISGATSLETGVPSRFSGSGSGKDYTLSITSLQTEDVATYYCQQYWSTPFTFGSGTKLEIK
notes: also called No.120 antibody; murine 120 antibody
Consider B3, for which, in assay [3], the “IC50, inhibition of IL-17A-induced IL-6 secretion from Hela cells” value came out at 30.5 pM. In assay [4], this molecule yielded a Kd of 0.299 pM, a koff of 6.08e-08 s⁻¹ and a kon of 204000 M⁻¹ s⁻¹.
